Measured values published in patent US20240336681A1 (LUDWIG MAXIMILIANS UNIVERSIT T M NCHEN, published 2024).
Numbering of substitutions follows the chain as printed. Blank lines part the entries; values can stand above or below the binder they belong to.

Assays:
[1] = target: recombinant C-terminally His-tagged human CD47 (extracellular domain) (human) (UniProt Q08722); assay: SPR, Biacore X100; construct captured by anti-human Fc on a CM5 chip, CD47 extracellular domain as analyte, 1:1 fit
[2] = target: recombinant C-terminally His-tagged human CD47 (extracellular domain) (human) (UniProt Q08722); assay: SPR, Biacore X100; construct captured by anti-human Fc on CM5 chip, human CD47 extracellular domain as analyte, 1:1 fit
[3] = target: T1, recombinant C-terminally His-tagged human CD47 (extracellular domain) (human, UniProt Q08722 19-141); assay: as above
T1 construct: also called recombinantly expressed human CD47 extracellular domain
Experimental: (§1) Surface Plasmon Resonance (SPR) was used in addition to analyse binding of the different protein constructs to recombinantly expressed CD47 and to determine their affinity. Association (Kₒₙ) and dissociation (Koff) rate constants were determined by SPR using a Biacore™ X-100 (Cytiva). Using the Human antibody capture kit an anti-human Fc antibody was immobilized on a CM5 sensor chip in a covalent manner using the Amine coupling Kit according to manufacturer's instructions. Humanized anti-hCD47 IgGs were injected as ligand to reach a surface coverage of approximately 100 RU-400 RU. Recombinantly expressed human CD47 extracellular domain was used as analyte and injected in increasing concentrations (e. g. from 3.9 to 1000 nM), with standard association time of 120 s and dissociation time of 600 s. Experiments were performed in multi-cycle kinetics runs, with regeneration between sample injection with the respective regeneration buffer (3M MgCl2 for the human antibody capture kit). All reagents were diluted in HBS-EP+ buffer (Cytiva). Data are fit to a simple 1:1 interaction model using the global data analysis option available within BiaEvaluation 2.0.1 software. The dissociation constant (KD) was used as a value for the affinity and was calculated from the ratio between Koff and Kₒₙ.

[4] = target: T1, recombinant C-terminally His-tagged …; assay: SPR, Biacore X100; antibody captured by anti-human Fc on a CM5 chip, CD47 extracellular domain as analyte, 1:1 fit
Experimental: as §1

human CD47 on cells = target: T2, human CD47 on cells (human, UniProt Q08722 19-323); assay: flow cytometry on CD47-positive Expi293 cells, 50 nM antibody; MFI of the antibody over MFI of the isotype control
T2 construct: also called CD47 on Molm-13, OVCAR-3, Suit-2 MSLN, HL-60 cells, red blood cells and CD47-transfected CHO cells
Experimental: Initially, binding of anti-hCD47 IgG4, anti-hCD47 IgG1 antibodies and Fab domains were measured on CD47-expressing cells by flow cytometry. Cells were stained with 50 nM of antibody followed by staining with a secondary fluorescently labelled anti-human IgG Fc or light-chain antibody, and analyzed by flow cytometry. Binding was measured by calculating the median fluorescence intensity (MFI) ratio, by dividing MFI of the antibody by the MFI of the isotype control.

[5] = target: T1, recombinant C-terminally His-tagged …; assay: SPR, Biacore X100; format for the scFv not described
[6] = target: T1, recombinant C-terminally His-tagged …; assay: SPR, Biacore X100
[7] = target: recombinant C-terminally His-tagged human CD47 (extracellular domain) (human) (UniProt Q08722); assay: SPR, Biacore X100; analyte hCD47 31.25 to 2000 nM
[8] = target: recombinant C-terminally His-tagged human CD47 (extracellular domain) (human) (UniProt Q08722); assay: SPR (affinity to CD47 as measured by SPR)

T2 sequence (Q08722 19-323): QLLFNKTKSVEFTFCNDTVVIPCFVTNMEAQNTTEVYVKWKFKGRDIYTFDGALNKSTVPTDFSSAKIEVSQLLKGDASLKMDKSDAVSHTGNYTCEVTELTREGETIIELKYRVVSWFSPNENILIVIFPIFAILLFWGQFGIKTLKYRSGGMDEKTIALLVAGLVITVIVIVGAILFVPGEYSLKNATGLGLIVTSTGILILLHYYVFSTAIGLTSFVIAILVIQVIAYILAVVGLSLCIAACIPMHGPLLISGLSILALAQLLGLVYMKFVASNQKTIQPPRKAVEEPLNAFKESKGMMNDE
T1 sequence (Q08722 19-141): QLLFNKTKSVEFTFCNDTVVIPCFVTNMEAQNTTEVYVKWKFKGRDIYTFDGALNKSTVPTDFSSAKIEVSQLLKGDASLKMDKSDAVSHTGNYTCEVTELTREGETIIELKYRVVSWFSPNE
recombinant C-terminally His-tagged human CD47 (extracellular domain) (human), sequence (Q08722 19-141): as above

B1: 2D6-031 (bispecific antibody, part only; not given: linkers and anti-TAA IgG1 chains, V domains shown, not shown: another chain or arm of the molecule; large carriers; small tags and cut ends)
VH: QVQLVESGGGLVQPGGSLRLSCAASGYTFPSYDINWVRQAPGKGLEWVGWIYPRDGSPKYNEKFKGRFTISADTSKNTAYLQMNSLRAEDTAVYYCARSVYYGTQFAYWGQGTLVTVSS
VL: DIQMTQSPSSLSASVGDRVTITCKSSQSLLNSRTRKNYLAWYQQKPGKAPKLLIYWASTRDSGVPSRFSGSGSGTDFTLTISSLQPEDFATYYCKQSFNLVTFGQGTKVEIK
- koff [1]: 0.14 s⁻¹
- kon [1]: 990000 M⁻¹ s⁻¹
- Kd [2]: 138 nM

B2: 2D6-015 (antibody, IgG4, V domains shown)
VH: B1 VH
VL: B1 VL
notes: hIgG4 (humanized IgG4); only the variable domains are tied to the construct; also called VH4/VL3
- Kd [3]: 311 nM
- Kd [4]: 310 nM
- koff [4]: 0.22 s⁻¹
- kon [4]: 710000 M⁻¹ s⁻¹
- MFI ratio (human CD47 on cells): 4.14

B4: 2D6-016 (antibody, IgG4, V domains shown)
VH: B1 VH
VL: B1 VL with Q3V, S66D
notes: hIgG4 (humanized IgG4); only the variable domains are tied to the construct; also called VH4/VL4
- Kd [3]: 203 nM
- Kd [4]: 203 nM
- koff [4]: 0.36 s⁻¹
- kon [4]: 1.8e+06 M⁻¹ s⁻¹
- MFI ratio (human CD47 on cells): 3.42

B9: 2D6-022 (bispecific antibody, part only; not given: linkers and anti-TAA IgG1 chains, V domains shown, not shown: another chain or arm of the molecule; large carriers; small tags and cut ends)
VH: QVELVQSGPEVKKPGSSVKVSCKASGYTFPSYDINWVRQRPGQGLEWMGWIYPRDGSPKYNEKFKGRVTITADTSTSTAYMELHSLRSEDTAVYYCARSVYYGTQFAYWGQGTLVTVSA
VL: DIVLTQSPSSLAVSLGERVTMSCKSSQSLLNSRTRKNYLAWYQQKPGQPPKLLIYWASTRDSGVPDRFSGSGSGTDFTLTISSLQAEDVAVYYCKQSFNLVTFGGGTKLEIK
- koff [1]: 0.07 s⁻¹
- kon [1]: 660000 M⁻¹ s⁻¹
- Kd [2]: 106 nM

B10: 2D6-076 (antibody, IgG1, V domains shown)
VH: B9 VH
VL: B9 VL with K95Q
notes: hIgG1 (humanized IgG1); only the variable domains are tied to the construct; also called VH2/VL2.7
- Kd [3]: 974 nM
- Kd [4]: 970 nM
- koff [4]: 0.48 s⁻¹
- kon [4]: 490000 M⁻¹ s⁻¹

B13: 2D6-005 (antibody, IgG4, V domains shown)
VH: B9 VH
VL: B1 VL with Q3V, M4L, I21M, T22S, F89I, Q105G, V109L
notes: hIgG4 (humanized IgG4), human kappa constant light chain from vector; only the variable domains are tied to the construct; also called VH2/VL1
- Kd [3]: 176 nM
- Kd [4]: 170 nM
- koff [4]: 0.13 s⁻¹
- kon [4]: 760000 M⁻¹ s⁻¹
- MFI ratio (human CD47 on cells): 4.95

More lines, now with the values ahead:

- koff [1]: 0.13 s⁻¹
- kon [1]: 960000 M⁻¹ s⁻¹
- Kd [2]: 141 nM
B3: 2D6-032 (bispecific antibody, part only; not given: linkers and anti-TAA IgG1 chains, V domains shown, not shown: another chain or arm of the molecule; large carriers; small tags and cut ends)
VH: B1 VH
VL: B1 VL with Q3V, S66D

- Kd [5]: 20 nM
- koff [6]: 0.00163 s⁻¹
- kon [6]: 81500 M⁻¹ s⁻¹
B5: 2D6-096 (scFv, V domains shown, not shown: small tags and cut ends)
VH: B1 VH with P30T
VL: B1 VL
notes: Standalone scFv; also called anti-CD47 scFv (2D6-096); VH3/VL3

- koff [7]: 0.396 s⁻¹
- kon [7]: 685000 M⁻¹ s⁻¹
- Kd [2]: 578 nM
B6: MSL-745 (bispecific antibody, part only; not given: anti-mesothelin IgG1 chains and linkers, V domains shown, not shown: another chain or arm of the molecule; large carriers; small tags and cut ends)
VH: B9 VH with G44C, W50G, D55S
VL: B9 VL with K95Q, G105C

- Kd [8]: 568 nM
B7: 2D6-059 (bispecific antibody, part only; not given: linkers and anti-TAA IgG1 chains, V domains shown, not shown: another chain or arm of the molecule; large carriers; small tags and cut ends)
VH: B9 VH with G44C, W50G, D55S
VL: B9 VL with K95Q, G105C

- Kd [8]: 659 nM
B8: 2D6-056 (bispecific antibody, part only; not given: linkers and anti-TAA IgG1 chains, V domains shown, not shown: another chain or arm of the molecule; large carriers; small tags and cut ends)
VH: B9 VH with W50G, D55S
VL: B9 VL with K95Q

- Kd [3]: 1320 nM
- Kd [4]: 1310 nM
- koff [4]: 0.32 s⁻¹
- kon [4]: 250000 M⁻¹ s⁻¹
B11: 2D6-066 (antibody, IgG1, V domains shown)
VH: B9 VH with Y52I
VL: B9 VL with L4M
notes: hIgG1 (humanized IgG1); only the variable domains are tied to the construct; also called VH2.4/VL2

- Kd [3]: 219 nM
- Kd [4]: 219 nM
- koff [4]: 0.16 s⁻¹
- kon [4]: 720000 M⁻¹ s⁻¹
B12: 2D6-067 (antibody, IgG1, V domains shown)
VH: B9 VH with D55F
VL: B9 VL with L4M
notes: hIgG1 (humanized IgG1); only the variable domains are tied to the construct; also called VH2.5/VL2
